Results taken from patent publication US20240076315A1, “KHL POLYPEPTIDE, AND USE THEREOF IN PREPARATION OF TABP-EIC CELL” (priority 2021, published 2024).
No end group written: not given here.

Tests used:
[1] = molecular target: PSMA (Homo sapiens, UniProt Q04609); experiment: Phage display peptide library (Ph.D.-12) screening for peptide binding to PSMA; conditions: three rounds of panning, Ph.D.-12 phage display library
Method: The present disclosure uses the Ph.D.-12 phage display peptide library kit to screen peptide KHL that specifically binds to PSMA.
Random twelve peptide phage display library: 100 μL. 1.5×10^13 pfu/mL, stored in TBS solution containing 50% glycerol, complexity-2.7×10^9 transformants-28gIII sequencing primers: 5′-HOGATTGGGATTTGCTAACAAC-3′, 100 pmol, 1 pmol/μL-96 g III sequencing primer: 5′-HOCCTCATATAGTTAGCGTAGCGTAACG-3′, 100 pmol/1 pmol/μL; E. Coli ER2738 Host bacterium F′laclq Δ(lacZ) M15 proA+B+zzf:: Tn10 (TetR)/fhuA2 supE thi Δ(lac proAB) Δ(hsdMS mcrB) 5 (rk mk McrBC−): This strain is provided in the form of a bacterial culture containing 50% glycerol, non receptive cells, and stored at −70° C.; Streptavidin, freeze-dried powder 1.5 mg; Biotin: 10 mM 100 μL.
Depending on the number and types of target molecules that need to be simultaneously selected for library selection, the selection experiment is conducted on a single sterilized polystyrene culture dish, 12 or 24 well plates, and 96 well microplates. Each target molecule is coated with at least one plate (or well), and the amount given in the following method is the amount of the 60×15 mm culture dish, the content in parentheses is the amount of the plate, and the dosage of microplate is adjusted accordingly for other medium-sized wells. However, in each case, the number of added bacteriophages is the same: 1.5×10^11 virion. […]

[2] = tested on: PC3 cell lines with low PSMA expression; experiment: Immunofluorescence detection of KHL peptide (FITC marker) on PC3 cell line; assay type: binding; conditions: FIG. 2
Method: (§1) Immunofluorescence detection was performed on KHL peptides in Lncap cell lines with high PSMA expression and PC3 cell lines with low PSMA expression, using FITC as the fluorescent marker. The fluorescence detection of KHL peptide and Lncap cell line is shown in FIG. 1, and the fluorescence detection of KHL peptide and PC3 cell line is shown in FIG. 2.

[3] = molecular target: T1, cell surface antigen PSMA (Homo sapiens, UniProt Q04609); experiment: Immunofluorescence detection of KHL peptide (FITC marker) on Lncap cell line; assay type: binding
T1 construct: endogenous in cells; host or cells: Lncap cells (PC3 cells as low-PSMA control)
Method: as §1

T1 sequence (Q04609 whole entry): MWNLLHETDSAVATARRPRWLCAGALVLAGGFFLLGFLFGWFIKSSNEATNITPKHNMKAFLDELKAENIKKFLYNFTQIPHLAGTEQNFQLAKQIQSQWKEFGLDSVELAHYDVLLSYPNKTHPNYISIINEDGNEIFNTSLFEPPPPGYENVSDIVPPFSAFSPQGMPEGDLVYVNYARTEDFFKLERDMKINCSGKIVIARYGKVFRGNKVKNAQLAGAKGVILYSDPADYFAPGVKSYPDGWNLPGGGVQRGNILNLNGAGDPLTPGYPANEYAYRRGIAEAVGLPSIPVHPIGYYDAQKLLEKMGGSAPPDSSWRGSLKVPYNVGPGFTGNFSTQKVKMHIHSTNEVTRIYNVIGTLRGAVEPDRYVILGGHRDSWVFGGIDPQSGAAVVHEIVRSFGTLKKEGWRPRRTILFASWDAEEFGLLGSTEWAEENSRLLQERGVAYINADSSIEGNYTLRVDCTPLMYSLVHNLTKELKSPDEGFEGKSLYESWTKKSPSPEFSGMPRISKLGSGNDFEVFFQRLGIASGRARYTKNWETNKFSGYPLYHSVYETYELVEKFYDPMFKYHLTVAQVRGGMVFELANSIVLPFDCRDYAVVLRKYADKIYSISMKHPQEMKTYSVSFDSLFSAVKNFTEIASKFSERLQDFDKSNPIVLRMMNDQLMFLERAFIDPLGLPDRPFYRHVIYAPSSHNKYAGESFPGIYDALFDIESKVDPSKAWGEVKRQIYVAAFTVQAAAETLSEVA
PSMA, sequence (Q04609 whole entry, species assumed): as the sequence (Q04609 whole entry) above

binding to PSMA found by peptide library screening [1]: specifically binding to PSMA
specificity of binding of KHL to the cell surface antigen PSMA ([3]; Lncap (high PSMA) versus PC3 (low PSMA)): high specificity
Sequence: KHLHYHSSVRYG (also: FITC label, attachment site not given here) [FITC used as the fluorescent marker in immunofluorescence]
cell surface fluorescence labeled by KHL [2]: only staining of the nucleus
cell surface fluorescence labeled by KHL ([3]; Lncap cell lines with high PSMA expression, FITC, FIG. 1): fluorescence displayed by KHL binding to the cell surface antigen PSMA
